Measurements as given in the supplement of paper PMC9112550, “Optimization of the antimicrobial peptide Bac7 by deep mutational scanning” (BMC Biology, 2022).

Each sequence was assayed on Escherichia coli TOP10 (assay: shrunken log2 fold change of peptide-encoding DNA abundance (4.5 h post-induction vs induction); higher = less antimicrobial activity (less host growth inhibition)). Conditions: time post-induction: 4.5 h; library: site-saturation at positions 5, 18, 19, 20.
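Also: peptides expressed intracellularly from a pBAD plasmid library in pooled LB shake-flask culture, induced with 0.3% L-arabinose, DNA abundance read by NGS, three biological replicates, DESeq2 with apeglm shrinkage.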

| Sequence | shrunken log2 fold change |
| --- | --- |
| RRIRWRPPRLPRPRPRPMITPRP | 0.0975 |
| RRIRSRPPRLPRPRPRPQMGPRP | -0.046 |
| RRIRNRPPRLPRPRPRPRLIPRP | 0.0319 |
| RRIRARPPRLPRPRPRPYPVPRP | -0.191 |
| RRIRHRPPRLPRPRPRPWLLPRP | -0.397 |
| RRIRTRPPRLPRPRPRPVKWPRP | -0.0599 |
| RRIRFRPPRLPRPRPRPNAMPRP | -0.191 |
| RRIRARPPRLPRPRPRPIKCPRP | -0.249 |
| RRIRERPPRLPRPRPRPEDQPRP | -0.0394 |
| RRIRSRPPRLPRPRPRPRWYPRP | -0.402 |
| RRIRNRPPRLPRPRPRPMNGPRP | 0.015 |
| RRIRNRPPRLPRPRPRPCIMPRP | -0.135 |
| RRIRRRPPRLPRPRPRPFKLPRP | -0.0153 |
| RRIRRRPPRLPRPRPRPDIVPRP | 0.17 |
| RRIRNRPPRLPRPRPRPVVAPRP | -0.0949 |
| RRIRDRPPRLPRPRPRPKVLPRP | -0.041 |
| RRIRERPPRLPRPRPRPYWGPRP | -0.346 |
| RRIRLRPPRLPRPRPRPRNSPRP | -0.051 |
| RRIRNRPPRLPRPRPRPTIAPRP | -0.277 |
| RRIRFRPPRLPRPRPRPGARPRP | 0.355 |
| RRIRYRPPRLPRPRPRPAYEPRP | -0.184 |
| RRIRHRPPRLPRPRPRPLYTPRP | -0.57 |
| RRIRCRPPRLPRPRPRPWATPRP | 0.00822 |
| RRIRQRPPRLPRPRPRPLKEPRP | -0.0182 |
| RRIRMRPPRLPRPRPRPYVEPRP | -0.133 |

| Sequence | shrunken log2 fold change |
| --- | --- |
| RRIRLRPPRLPRPRPRPMVPPRP | 0.096 |
| RRIRIRPPRLPRPRPRPRDWPRP | 0.429 |
| RRIRDRPPRLPRPRPRPEMQPRP | -0.0247 |
| RRIRQRPPRLPRPRPRPHTAPRP | -0.926 |
| RRIRKRPPRLPRPRPRPHIPPRP | -0.247 |
| RRIRHRPPRLPRPRPRPGEFPRP | -0.00759 |
| RRIRPRPPRLPRPRPRPGTGPRP | -0.0651 |
| RRIRARPPRLPRPRPRPDQCPRP | 0.0213 |
| RRIRKRPPRLPRPRPRPCALPRP | 0.0167 |
| RRIRRRPPRLPRPRPRPMKNPRP | 0.298 |
| RRIRARPPRLPRPRPRPTQRPRP | 0.915 |
| RRIRRRPPRLPRPRPRPAFGPRP | 0.348 |
| RRIRFRPPRLPRPRPRPRQKPRP | 0.363 |
| RRIRRRPPRLPRPRPRPEMNPRP | 0.406 |
| RRIRHRPPRLPRPRPRPVQMPRP | 0.0393 |
| RRIRGRPPRLPRPRPRPFRPPRP | 0.021 |
| RRIRERPPRLPRPRPRPYFKPRP | -0.258 |
| RRIRDRPPRLPRPRPRPIYSPRP | -0.15 |
| RRIRSRPPRLPRPRPRPVCPPRP | 0.0554 |
| RRIRLRPPRLPRPRPRPYFKPRP | -1.3 |
| RRIRERPPRLPRPRPRPCYAPRP | -0.383 |
| RRIRIRPPRLPRPRPRPSFKPRP | -0.494 |
| RRIRVRPPRLPRPRPRPYHQPRP | 0.00427 |
| RRIRERPPRLPRPRPRPTWKPRP | -0.012 |
| RRIRMRPPRLPRPRPRPVKTPRP | 0.0113 |

| Sequence | shrunken log2 fold change |
| --- | --- |
| RRIRPRPPRLPRPRPRPHFRPRP | 0.0655 |
| RRIRMRPPRLPRPRPRPWEEPRP | 0.317 |
| RRIRDRPPRLPRPRPRPEWPPRP | 0.209 |
| RRIRHRPPRLPRPRPRPLPRPRP | 0.176 |
| RRIRDRPPRLPRPRPRPKKGPRP | 0.26 |
| RRIRRRPPRLPRPRPRPIAQPRP | 0.129 |
| RRIRKRPPRLPRPRPRPLFNPRP | 0.0323 |
| RRIRGRPPRLPRPRPRPTWYPRP | 0.159 |
| RRIRHRPPRLPRPRPRPEERPRP | -0.0858 |
| RRIRERPPRLPRPRPRPKRTPRP | 0.108 |
| RRIRERPPRLPRPRPRPMSVPRP | -0.158 |
| RRIRCRPPRLPRPRPRPIVHPRP | -0.7 |
| RRIRQRPPRLPRPRPRPCERPRP | -0.0133 |
| RRIRLRPPRLPRPRPRPWGNPRP | -0.106 |
| RRIRHRPPRLPRPRPRPVVMPRP | -0.245 |
| RRIRVRPPRLPRPRPRPTSNPRP | -0.296 |
| RRIRCRPPRLPRPRPRPAEIPRP | -0.0903 |
| RRIRFRPPRLPRPRPRPRFVPRP | 0.181 |
| RRIRSRPPRLPRPRPRPMGPPRP | -0.0846 |
| RRIRFRPPRLPRPRPRPDHQPRP | -0.147 |
| RRIRMRPPRLPRPRPRPAQTPRP | 0.00383 |
| RRIRDRPPRLPRPRPRPCMQPRP | -0.0524 |
| RRIRMRPPRLPRPRPRPDDWPRP | 3.03 |
| RRIRDRPPRLPRPRPRPRFKPRP | -0.0405 |
| RRIRWRPPRLPRPRPRPNNLPRP | -0.513 |

| Sequence | shrunken log2 fold change |
| --- | --- |
| RRIRVRPPRLPRPRPRPAFFPRP | 0.084 |
| RRIRERPPRLPRPRPRPCWHPRP | -0.523 |
| RRIRYRPPRLPRPRPRPTSGPRP | 0.0452 |
| RRIRIRPPRLPRPRPRPLDGPRP | 0.0631 |
| RRIRRRPPRLPRPRPRPNRFPRP | 0.156 |
| RRIRHRPPRLPRPRPRPNWNPRP | -0.451 |
| RRIRWRPPRLPRPRPRPWSTPRP | 0.374 |
| RRIRIRPPRLPRPRPRPHWFPRP | 0.022 |
| RRIRCRPPRLPRPRPRPMCQPRP | -0.0371 |
| RRIRGRPPRLPRPRPRPPLSPRP | 0.897 |
| RRIRQRPPRLPRPRPRPAVWPRP | 0.939 |
| RRIRARPPRLPRPRPRPIHTPRP | 0.0197 |
| RRIRDRPPRLPRPRPRPWFAPRP | -0.0921 |
| RRIRDRPPRLPRPRPRPCCAPRP | 0.58 |
| RRIRKRPPRLPRPRPRPTPKPRP | 0.334 |
| RRIRFRPPRLPRPRPRPPNQPRP | 0.23 |
| RRIRPRPPRLPRPRPRPSPEPRP | -0.0109 |
| RRIRDRPPRLPRPRPRPKLLPRP | 0.0314 |
| RRIRIRPPRLPRPRPRPAKGPRP | -0.224 |
| RRIRIRPPRLPRPRPRPRKYPRP | -0.561 |
| RRIRKRPPRLPRPRPRPPETPRP | 0.651 |
| RRIRERPPRLPRPRPRPMKNPRP | -0.22 |
| RRIRPRPPRLPRPRPRPYPIPRP | -0.175 |
| RRIRSRPPRLPRPRPRPFIYPRP | -0.82 |
| RRIRYRPPRLPRPRPRPKSTPRP | -0.634 |

| Sequence | shrunken log2 fold change |
| --- | --- |
| RRIRDRPPRLPRPRPRPIGEPRP | -0.00228 |
| RRIRFRPPRLPRPRPRPDEQPRP | 0.00595 |
| RRIRNRPPRLPRPRPRPELAPRP | 0.0428 |
| RRIRKRPPRLPRPRPRPFHHPRP | -0.131 |
| RRIRHRPPRLPRPRPRPWQHPRP | -0.0597 |
| RRIRYRPPRLPRPRPRPRLYPRP | -0.247 |
| RRIRNRPPRLPRPRPRPTKVPRP | -0.153 |
| RRIRVRPPRLPRPRPRPATTPRP | 0.0611 |
| RRIRGRPPRLPRPRPRPFIWPRP | 0.351 |
| RRIRGRPPRLPRPRPRPQSIPRP | 0.108 |
| RRIRGRPPRLPRPRPRPKYKPRP | 0.0104 |
| RRIRCRPPRLPRPRPRPGIGPRP | 0.295 |
| RRIRGRPPRLPRPRPRPIDVPRP | 0.0296 |
| RRIRGRPPRLPRPRPRPTHCPRP | 0.433 |
| RRIRYRPPRLPRPRPRPHARPRP | -0.163 |
| RRIRIRPPRLPRPRPRPGRPPRP | 0.398 |
| RRIRARPPRLPRPRPRPSHPPRP | -0.0758 |
| RRIRERPPRLPRPRPRPWVSPRP | -0.0377 |
| RRIRCRPPRLPRPRPRPMGFPRP | -0.103 |
| RRIRCRPPRLPRPRPRPTQIPRP | 0.452 |
| RRIRWRPPRLPRPRPRPNVWPRP | -0.308 |
| RRIRERPPRLPRPRPRPPWHPRP | -0.0644 |
| RRIRLRPPRLPRPRPRPWTWPRP | 0.0307 |
| RRIRVRPPRLPRPRPRPWSKPRP | -0.2 |
| RRIRTRPPRLPRPRPRPYAMPRP | -0.462 |

| Sequence | shrunken log2 fold change |
| --- | --- |
| RRIRCRPPRLPRPRPRPYSHPRP | -0.595 |
| RRIRSRPPRLPRPRPRPQITPRP | -0.457 |
| RRIRRRPPRLPRPRPRPTGLPRP | 0.0398 |
| RRIRNRPPRLPRPRPRPWKEPRP | -0.59 |
| RRIRQRPPRLPRPRPRPQFEPRP | -0.0143 |
| RRIRWRPPRLPRPRPRPCSTPRP | 0.137 |
| RRIRCRPPRLPRPRPRPRCYPRP | -0.532 |
| RRIRYRPPRLPRPRPRPLNNPRP | -1.29 |
| RRIRIRPPRLPRPRPRPTGYPRP | -0.73 |
| RRIRLRPPRLPRPRPRPWHIPRP | 0.0292 |
| RRIRCRPPRLPRPRPRPVWIPRP | -0.441 |
| RRIRCRPPRLPRPRPRPFLNPRP | -0.602 |
| RRIRLRPPRLPRPRPRPMHFPRP | 0.108 |
| RRIRHRPPRLPRPRPRPYYTPRP | -0.0493 |
| RRIRDRPPRLPRPRPRPADIPRP | -0.00114 |
| RRIRLRPPRLPRPRPRPQLCPRP | 0.118 |
| RRIRERPPRLPRPRPRPGNMPRP | -0.0808 |
| RRIRYRPPRLPRPRPRPIFAPRP | 0.159 |
| RRIRHRPPRLPRPRPRPYWNPRP | -0.98 |
| RRIRGRPPRLPRPRPRPKYPPRP | 0.0365 |
| RRIRQRPPRLPRPRPRPNSPPRP | -0.0178 |
| RRIRKRPPRLPRPRPRPKDQPRP | 0.619 |
| RRIRTRPPRLPRPRPRPQCFPRP | 0.0187 |
| RRIRWRPPRLPRPRPRPFIPPRP | -1.15 |
| RRIRVRPPRLPRPRPRPCVAPRP | 0.159 |
